# Values of other authors, collected in PMC3082853.
# Target: FepA (Escherichia coli) (UniProt P05825)
# Sequence of UniProt P05825 (P05825 23-746): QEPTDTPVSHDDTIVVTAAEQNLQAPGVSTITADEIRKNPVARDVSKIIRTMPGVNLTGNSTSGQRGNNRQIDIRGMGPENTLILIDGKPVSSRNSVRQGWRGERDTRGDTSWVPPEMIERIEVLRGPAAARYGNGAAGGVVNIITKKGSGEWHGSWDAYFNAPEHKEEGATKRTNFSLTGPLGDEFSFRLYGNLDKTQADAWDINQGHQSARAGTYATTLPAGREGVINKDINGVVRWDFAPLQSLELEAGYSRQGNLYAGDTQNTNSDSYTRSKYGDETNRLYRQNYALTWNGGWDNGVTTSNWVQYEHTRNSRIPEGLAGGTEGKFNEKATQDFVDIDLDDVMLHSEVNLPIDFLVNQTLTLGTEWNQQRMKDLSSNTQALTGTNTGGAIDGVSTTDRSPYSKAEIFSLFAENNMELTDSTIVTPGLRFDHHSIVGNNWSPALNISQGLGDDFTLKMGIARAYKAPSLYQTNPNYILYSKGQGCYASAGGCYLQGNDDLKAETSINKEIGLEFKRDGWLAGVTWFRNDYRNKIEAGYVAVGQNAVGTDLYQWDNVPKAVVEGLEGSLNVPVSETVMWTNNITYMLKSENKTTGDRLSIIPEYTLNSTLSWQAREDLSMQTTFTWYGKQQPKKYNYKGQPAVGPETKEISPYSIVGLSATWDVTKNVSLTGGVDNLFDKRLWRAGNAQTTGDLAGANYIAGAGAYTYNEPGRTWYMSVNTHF
substance,measurement,value
colicin B (from UniProt P05819),Kd,185 nM
